Experiment [1] concerns the target T1, human CS1 on CS1pos OPM2 multiple myeloma cells (Homo sapiens, OPM2 myeloma cells, UniProt Q9NQ25). The experiment can be described thus: cell-based or functional assay.
For experiment [2], the target named is T2, recombinant human CS1 protein (CS1-(his)C) (Homo sapiens, UniProt Q9NQ25).
T2 construct: CS1 (SLAMF7, CD319), human, the extracellular portion; also called huCS1; SLAMF7; source: HEK293-E 253 cells, transiently transfected, purified from the supernatant (IMAC, SEC) by U Protein Express
The experiment can be described thus: SPR; Biacore T200; recombinant CS1 amine-coupled on a CM5 chip; VHH 100 nM to 3.125 nM in HBS pH 7.4, 25°C; association 180 s, dissociation 300 s; fit '1:1 binding with drift and RI2'; n=1. The note with it: both partners purified.

Experiment [3] deals with T1, human CS1 on CS1pos OPM2 multiple …. Description: flow cytometry on cells; purified VHH at 200 nM, 1 h at 4°C, on CS1pos OPM2 cells; detected by mouse anti-His IgG1 mAb and APC anti-mouse IgG1 mAb; ΔMFI against the non-targeting control VHH R3B23 at 200 nM; n=1. The note with it: one partner purified.
For experiment [4], the target named is T3, recombinant murine CS1 protein (CS1-(his)C) (Mus musculus, strain , UniProt Q8BHK6).
T3 construct: CS1 (SLAMF7), murine, the extracellular portion; also called muCS1; source: HEK293-E 253 cells, transiently transfected, purified from the supernatant (IMAC, SEC) by U Protein Express
T3 sequence (Q8BHK6 23-224): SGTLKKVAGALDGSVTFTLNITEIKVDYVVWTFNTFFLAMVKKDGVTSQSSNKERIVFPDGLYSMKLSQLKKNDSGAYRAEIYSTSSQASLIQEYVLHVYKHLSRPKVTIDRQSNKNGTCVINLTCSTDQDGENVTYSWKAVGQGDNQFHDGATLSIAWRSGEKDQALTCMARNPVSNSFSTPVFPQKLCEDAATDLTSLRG
Description: SPR; follow-up SPR on plate-coated muCS1 (Supplementary Figure 1). The note with it: both partners purified.

Experiment [5] deals with T4, murine CS1 on muCS1pos 5T33vt cells (Mus musculus, 5T33vt myeloma cells, UniProt Q8BHK6).
T4 construct: CS1 (SLAMF7), murine, as expressed on 5T33vt cells; source: on murine CS1pos 5T33vt cells
T4 sequence (Q8BHK6 23-333): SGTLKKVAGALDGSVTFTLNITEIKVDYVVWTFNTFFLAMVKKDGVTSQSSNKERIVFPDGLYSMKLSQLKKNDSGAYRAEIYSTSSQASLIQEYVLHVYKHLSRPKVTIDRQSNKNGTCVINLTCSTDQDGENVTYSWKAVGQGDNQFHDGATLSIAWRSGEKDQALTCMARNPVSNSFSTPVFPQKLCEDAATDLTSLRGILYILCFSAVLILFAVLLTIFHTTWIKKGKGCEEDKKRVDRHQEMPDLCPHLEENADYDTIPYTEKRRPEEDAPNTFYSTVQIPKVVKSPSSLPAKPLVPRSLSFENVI
Description: flow cytometry on cells; VHH on muCS1pos 5T33vt cells (Supplementary Figure 2). The note with it: one partner purified.

The target in experiment [6] is T2, recombinant human CS1 protein …. Description: SPR; Biacore T200; recombinant CS1 amine-coupled on a CM5 chip; VHH 100 nM to 3.125 nM in HBS pH 7.4, 25°C; association 180 s, dissociation 300 s; fit '1:1 binding with drift and RI2'; n=1. The note with it: both partners purified. The source holds these as a separate data set.
The target of experiment [7] is T1, human CS1 on CS1pos OPM2 multiple …. Description: flow cytometry on cells; purified VHH at 200 nM, 1 h at 4°C, on CS1pos OPM2 cells; detected by mouse anti-His IgG1 mAb and APC anti-mouse IgG1 mAb; ΔMFI against the non-targeting control VHH R3B23 at 200 nM; n=1. The note with it: one partner purified. The source holds these as a separate data set.

B1: VHH-6 (VHH)
VHH: DVQLVESGGGLVQAGGSLRLSCAASGRTFEDYFMAWFRQIPGKEREFVAAVGWNTGRGYYTDSVKGRFTISRDSAKNTLYLQMDSLKPEDTAVYYCNAPLQSLDRRLPGPYWGQGTQVTVSS
notes: 99mTc-labelled on the His tag for the in vivo experiment; source: E. coli WK6 periplasm, purified (IMAC, SEC); not shown: His6, C-terminal, kept
Turning to B1, in experiment [1], the “tumor uptake of the 99mTc-labelled VHH in subcutaneous CS1pos OPM2 tumors in mice, ex vivo at 90 min p.i. (n=3)” value (“tumor uptake … at 90 min p.i. (n=3)” below) came to 6.29 % IA/g. Further, in experiment [2], the Kd worked out at 3.8 nM, the koff was determined as 0.00079 s⁻¹ and the kon amounted to 210000 M⁻¹ s⁻¹. Moreover, the “ΔMFI [VHH] = 200 nM” value in experiment [3] was 101.

B2: VHH-63 (VHH)
VHH: DVQLVESGGGLVQPGGSLRLSCTVSGLTFSDYDMSWVRQAPGKGPEWVSFINTGGGSTYYDDSVKGRFTISRDNAKNTLYLQMDSLKPEDTALYYCARGDPYSDPKYWGQGTQVTVSS
notes: as for B1
Take B2: the “tumor uptake … at 90 min p.i. (n=3)” value in experiment [1] is 1.03 % IA/g. In experiment [2], the Kd amounted to 9.8 nM, the koff is 0.0019 s⁻¹ and the kon came out at 190000 M⁻¹ s⁻¹. For the same molecule, the “ΔMFI [VHH] = 200 nM” value in experiment [3] was 3.37.

B3: VHH-61 (VHH)
VHH: DVQLVESGGGMVQPGGSLRLSCAASGFTFSSYGMSWVRQAPGKGPEWVSYINVGGGSTYYDDSVKGRFTISRDNAKNTLYLQMNSLKPEDTALYYCARGDPYSDHPQRTWGQGTQVTVSS
notes: as for B1
For the molecule B3, in experiment [1], the “tumor uptake … at 90 min p.i. (n=3)” value worked out at 6.57 % IA/g. Further, in experiment [2], the Kd was 0.33 nM, the koff amounted to 8.1e-05 s⁻¹ and the kon worked out at 250000 M⁻¹ s⁻¹. In addition, the “ΔMFI [VHH] = 200 nM” value in experiment [3] worked out at 10.3.

B4: VHH-78 (VHH)
VHH: QVQLQESGGGLVQPGGSLRLSCAASGSIFSILAMGWYRQAPGKQRELVASVTNGGSTNYADSVKGRFTISRDNAKNTVYLQMNSLKPEDTAVYYCNVRPYSDYDSWGHGTQVTVSS
notes: source: E. coli WK6 periplasm, purified (IMAC, SEC); not shown: His6, C-terminal, kept
As to B4, the binding result in experiment [4] is listed as “binds”; in experiment [5], “binds”; in experiment [6] it was “no binding (tested: 100 nM)”; in experiment [7], “no binding (tested: 200 nM)”.

B5: VHH-73 (VHH)
VHH: DVQLVESGGGMVQSGGSLRLSCAASGFTFSSYDMSWVRQAPGKGPEWVSTINTGGSSTYYDDSVKGRFTISRDNAKNTLYLQMNSLKPEDTALYYCARGGPYSRDYWGQGTQVTVSS
notes: as for B1
As to B5, in experiment [1], the “tumor uptake … at 90 min p.i. (n=3)” value came to 0.52 % IA/g. In experiment [2], the Kd worked out at 35.8 nM, the koff was 0.00254 s⁻¹ and the kon stood at 74400 M⁻¹ s⁻¹. For the same molecule, in experiment [3], the “ΔMFI [VHH] = 200 nM” value stood at 1.35.

B6: VHH-79 (VHH)
VHH: QVQLQESGGGLVQPGGSLRLSCAASGSIFSILAMAWYRQAPGKQRELVASITNGGSTNYADSVKGRFTISRDNDKNTVYLLMNSLKPEDTAVYYCNPRPMPWGTYDYWGQGTQVTVSS
notes: as for B4
Take B6: the binding result is “binds” in experiment [4], “binds” in experiment [5], “no binding (tested: 100 nM)” in experiment [6] and “no binding (tested: 200 nM)” in experiment [7].

B7: VHH-29 (VHH)
VHH: DVQLVESGGGLVQPGGSLRLSCAASGFTFSSYAMSWVRQAPGKGPEWVSHINTGGGSTYYDDSVKGRFTISRDNAKNTLYLQMNSLKPEDTALYYCARGDPFDEYRYWGQGTQVTVSS
notes: as for B1
Regarding B7, in experiment [1], the “tumor uptake … at 90 min p.i. (n=3)” value turned out to be 4.75 % IA/g. Besides, in experiment [2], the Kd is 1.6 nM, the off-rate constant (koff) is 0.00024 s⁻¹ and the kon came to 150000 M⁻¹ s⁻¹. Further, in experiment [3], the “ΔMFI [VHH] = 200 nM” value came out at 29.4.

B8: VHH-53 (VHH)
VHH: DVQLVESGGGMVQPGGSLRLSCAASGFTFSSYDMSWVRQAPGKGPEWVSYINTGGGSTYYDDSVKGRFTISRDNAKNTLYLQMNSLKAEDTALYYCARGDPFQRPKYWGQGTQVTVSS
notes: as for B1
As to B8, the “tumor uptake … at 90 min p.i. (n=3)” value in experiment [1] is 7.5 % IA/g. Also, in experiment [2], the Kd was 0.81 nM, the koff was 0.0003 s⁻¹ and the kon was 370000 M⁻¹ s⁻¹. The “ΔMFI [VHH] = 200 nM” value in experiment [3] amounted to 22.1.

B9: VHH-56 (Table 1, the row between 53 and 57) (VHH)
VHH: DVQLVESGGGLVQPGGSLRLSCAASGFTFSSYGMSWVRQAPGKGPEWVSHINTGGGSTYYADSVKGRFTISRDNAKNTLYLQMNSLKPEDTALYYCARGDPWGHDPSWGQGTQVTVSS
notes: this is the second; source: E. coli WK6 periplasm, purified (IMAC, SEC); not shown: His6, C-terminal, kept
Regarding B9, in experiment [2], the Kd is 36.1 nM, the koff is 0.01 s⁻¹ and the kon was determined as 279000 M⁻¹ s⁻¹. Also, the “ΔMFI [VHH] = 200 nM” value in experiment [3] came to 4.72.

B10: VHH-22 (VHH)
VHH: DVQLVESGGGLVQPGGSLRLSCAASGFTFSSYDMSWVRQAPGKGPEWVSHITTGGGSTHYDDSVKGRFTISRDNAKNTLYLQMNSLKPEDTALYYCARGDPFDSSRDWGQGTQVTVSS
notes: as for B4
Regarding B10, in experiment [2], the Kd was determined as 4 nM, the koff amounted to 0.00048 s⁻¹ and the on-rate (kon) worked out at 120000 M⁻¹ s⁻¹. Further, in experiment [3], the “ΔMFI [VHH] = 200 nM” value turned out to be 7.29.

B11: VHH-57 (VHH)
VHH: DVQLVESGGGMVQPGGSLRLSCAASGFTFSSYGMSWVRQAPGKGPEWVSHINTGGGSTYYADSVKGRFTISRDNAKNTLYLQMNSLKPEDTALYYCARGDPWGHDPSWGQGTQVTVSS
notes: as for B1
With B11, the “tumor uptake … at 90 min p.i. (n=3)” value in experiment [1] is 0.85 % IA/g. In addition, in experiment [2], the Kd was determined as 24.7 nM, the koff is 0.0085 s⁻¹ and the kon worked out at 350000 M⁻¹ s⁻¹. Further, the “ΔMFI [VHH] = 200 nM” value in experiment [3] amounted to 4.8.

B12: VHH-24 (VHH)
VHH: DVQLVESGGGMVQPGGSLRLSCAASGFTFSSYDMSWVRQAPGKGPEWVSHITTGGGSTHYDDSVKGRFTISRDNAKNTLYLQMNSLKPEDTALYYCARGDPFDSSRDWGQGTQVTVSS
notes: as for B4
For the molecule B12, in experiment [2], the Kd came to 4.7 nM, the dissociation rate constant (koff) was 0.00047 s⁻¹ and the kon was determined as 100000 M⁻¹ s⁻¹. Moreover, the “ΔMFI [VHH] = 200 nM” value in experiment [3] worked out at 20.6.

B13: VHH-71 (VHH)
VHH: DVQLVESGGGMVQPGGSLRLSCAASGFTFSSYDMSWVRQAPGKGPEWVSFINTGGGSTYYDDSVKGRFTISRDNAKNTLYLQMNSLKPEDTALYYCARGDPYSDPKYWGQGTQVTVSS
notes: as for B1
With B13, the “tumor uptake … at 90 min p.i. (n=3)” value in experiment [1] was 4.02 % IA/g. In experiment [2], the Kd was 4.29 nM, the dissociation rate constant (koff) turned out to be 0.0016 s⁻¹ and the kon was 372000 M⁻¹ s⁻¹. For the same molecule, in experiment [3], the “ΔMFI [VHH] = 200 nM” value was found to be 11.2.

B14: VHH-65 (VHH)
VHH: DVQLVESGGGMVQSGGSLRLSCAASGFTFSSYDMSWVRQAPGKGPEWVSYINTGGGSTYYDDSVKGRFTISRDNAKNTLYLQMNSLKAEDTALYYCARGDPFQRPKYWGQGTQVTVSS
notes: as for B4
With B14, in experiment [2], the Kd turned out to be 2.32 nM, the koff is 0.000979 s⁻¹ and the association rate constant (kon) was found to be 423000 M⁻¹ s⁻¹. Moreover, the “ΔMFI [VHH] = 200 nM” value in experiment [3] amounted to 11.4.

B15: VHH-51 (VHH)
VHH: DVQLVESGGGMVQPGGSLRLSCAASGFTFSSYDMSWVRLAPGKGPEWVSYINTGGGSTYYDDSVKGRFTISRDNAKNTLYLQMNSLKAEDTALYYCARGDPFQRPKYWGQGTQVTVSS
notes: as for B4
Turning to B15, in experiment [2], the Kd is 0.6 nM, the koff was found to be 0.00029 s⁻¹ and the kon was found to be 490000 M⁻¹ s⁻¹. Moreover, the “ΔMFI [VHH] = 200 nM” value in experiment [3] came out at 14.3.

B16: VHH-28 (VHH)
VHH: DVQLVESGGGLVQPGGSLRLSCAASGFTLDDYAMSWVRQAPGKGPEWVSYINTGGGSTYYDDSVKGRFTISRDNAKNTLYLQMNSLKAEDTALYYCARGDPFQRPKYWGQGTQVTVSS
notes: as for B4
B16: in experiment [2], the Kd stood at 1.2 nM, the koff amounted to 0.00025 s⁻¹ and the kon worked out at 210000 M⁻¹ s⁻¹. Also, in experiment [3], the “ΔMFI [VHH] = 200 nM” value was found to be 6.58.

B17: VHH-17 (VHH)
VHH: DVQLVESGGGLVQPGDSLRLSCTASGFTFSNYPMSWVRQAPGKGPEWISHINTGGGSTYYADSVKGRFTISRDNAKNTLYLQMNSLKPEDTALYYCARGDPFKYSGSYLRGQGTQVTVSS
notes: as for B1
Turning to B17, the “tumor uptake … at 90 min p.i. (n=3)” value in experiment [1] came out at 1.05 % IA/g. Besides, the “ΔMFI [VHH] = 200 nM” value in experiment [3] stood at 13.

Source of the values: PMC11077437, “Scrutiny of chimeric antigen receptor activation by the extracellular domain: experience with single domain antibodies targeting multiple myeloma cells highlights the need for case-by-case optimization” (Frontiers in Immunology, 2024).
